Values quoted from earlier work in patent US20200069786A1, “COMPOSITION AND PROCESS FOR PREPARING VACCINE” (TREOS BIO ZRT., priority 2018, published 2020).

B1: MAGE-C2 (protein, UniProt Q9UBF1 1-373, looked up)
Melanoma-associated antigen C2: MPPVPGVPFRNVDNDSPTSVELEDWVDAQHPTDEEEEEASSASSTLYLVFSPSSFSTSSSLILGGPEEEEVPSGVIPNLTESIPSSPPQGPPQGPSQSPLSSCCSSFSWSSFSEESSSQKGEDTGTCQGLPDSESSFTYTLDEKVAELVEFLLLKYEAEEPVTEAEMLMIVIKYKDYFPVILKRAREFMELLFGLALIEVGPDHFCVFANTVGLTDEGSDDEGMPENSLLIIILSVIFIKGNCASEEVIWEVLNAVGVYAGREHFVYGEPRELLTKVWVQGHYLEYREVPHSSPPYYEFLWGPRAHSESIKKKVLEFLAKLNNTVPSSFPSWYKDALKDVEERVQATIDTADDATVMASESLSVMSSNVSFSE
B2: SCP-1 (protein, UniProt Q15431 1-976, looked up)
Synaptonemal complex protein 1: MEKQKPFALFVPPRSSSSQVSAVKPQTLGGDSTFFKSFNKCTEDDFEFPFAKTNLSKNGENIDSDPALQKVNFLPVLEQVGNSDCHYQEGLKDSDLENSEGLSRVYSKLYKEAEKIKKWKVSTEAELRQKESKLQENRKIIEAQRKAIQELQFGNEKVSLKLEEGIQENKDLIKENNATRHLCNLLKETCARSAEKTKKYEYEREETRQVYMDLNNNIEKMITAFEELRVQAENSRLEMHFKLKEDYEKIQHLEQEYKKEINDKEKQVSLLLIQITEKENKMKDLTFLLEESRDKVNQLEEKTKLQSENLKQSIEKQHHLTKELEDIKVSLQRSVSTQKALEEDLQIATKTICQLTEEKETQMEESNKARAAHSFVVTEFETTVCSLEELLRTEQQRLEKNEDQLKILTMELQKKSSELEEMTKLTNNKEVELEELKKVLGEKETLLYENKQFEKIAEELKGTEQELIGLLQAREKEVHDLEIQLTAITTSEQYYSKEVKDLKTELENEKLKNTELTSHCNKLSLENKELTQETSDMTLELKNQQEDINNNKKQEERMLKQIENLQETETQLRNELEYVREELKQKRDEVKCKLDKSEENCNNLRKQVENKNKYIEELQQENKALKKKGTAESKQLNVYEIKVNKLELELESAKQKFGEITDTYQKEIEDKKISEENLLEEVEKAKVIADEAVKLQKEIDKRCQHKIAEMVALMEKHKHQYDKIIEERDSELGLYKSKEQEQSSLRASLEIELSNLKAELLSVKKQLEIEREEKEKLKREAKENTATLKEKKDKKTQTFLLETPEIYWKLDSKAVPSQTVSRNFTSVDHGISKDKRDYLWTSAKNTLSTPLPKAYTVKTPTKPKLQQRENLNIPIEESKKKRKMAFEFDINSDSSETTDLLSMVSEEETLKTLYRNNNPPASHLCVKTPKKAPSSLTTPGSTLKFGAIRKMREDRWAVIAKMDRKKKLKEAEKLFV
B3: SSX-4 (protein, UniProt O60224 1-188, looked up)
Protein SSX4: MNGDDAFARRPRDDAQISEKLRKAFDDIAKYFSKKEWEKMKSSEKIVYVYMKLNYEVMTKLGFKVTLPPFMRSKRAADFHGNDFGNDRNHRNQVERPQMTFGSLQRIFPKIMPKKPAEEENGLKEVPEASGPQNDGKQLCPPGNPSTLEKINKTSGPKRGKHAWTHRLRERKQLVVYEEISDPEEDDE
B4: SSX-2 (protein, UniProt Q16385 1-188, looked up)
Protein SSX2: MNGDDAFARRPTVGAQIPEKIQKAFDDIAKYFSKEEWEKMKASEKIFYVYMKRKYEAMTKLGFKATLPPFMCNKRAEDFQGNDLDNDPNRGNQVERPQMTFGRLQGISPKIMPKKPAEEGNDSEEVPEASGPQNDGKELCPPGKPTTSEKIHERSGPKRGEHAWTHRLRERKQLVIYEEISDPEEDDE
B5: FMR1NB (protein, UniProt Q8N0W7 1-255, looked up)
FMR1 neighbor protein: MSSHRRKAKGRNRRSHRAMRVAHLELATYELAATESNPESSHPGYEAAMADRPQPGWRESLKMRVSKPFGMLMLSIWILLFVCYYLSYYLCSGSSYFVLANGHILPNSENAHGQSLEEDSALEALLNFFFPTTCNLRENQVAKPCNELQDLSESECLRHKCCFSSSGTTSFKCFAPFRDVPKQMMQMFGLGAISLILVCLPIYCRSLFWRSEPADDLQRQDNRVVTGLKKQRRKRKRKSEMLQKAARGREEHGDE
B6: TAF7L (protein, UniProt Q5H9L4 1-462, looked up)
Transcription initiation …: MECPEGQLPISSENDSTPTVSTSEVTSQQEPQILVDRGSETTYESSADIAGDEGTQIPADEDTQTDADSSAQAAAQAPENFQEGKDMSESQDEVPDEVENQFILRLPLEHACTVRNLARSQSVKMKDKLKIDLLPDGRHAVVEVEDVPLAAKLVDLPCVIESLRTLDKKTFYKTADISQMLVCTADGDIHLSPEEPAASTDPNIVRKKERGREEKCVWKHGITPPLKNVRKKRFRKTQKKVPDVKEMEKSSFTEYIESPDVENEVKRLLRSDAEAVSTRWEVIAEDGTKEIESQGSIPGFLISSGMSSHKQGHTSSEYDMLREMFSDSRSNNDDDEDEDDEDEDEDEDEDEDEDKEEEEEDCSEEYLERQLQAEFIESGQYRANEGTSSIVMEIQKQIEKKEKKLHKIQNKAQRQKDLIMKVENLTLKNHFQSVLEQLELQEKQKNEKLISLQEQLQRFLKK
B7: TDRD1 (protein, UniProt Q9BXT4 1-1180, looked up)
Tudor domain-containing …: MSVKSPFNVMSRNNLEAPPCKMTEPFNFEKNENKLPPHESLRSPGTLPNHPNFRLKSSENGNKKNNFLLCEQTKQYLASQEDNSVSSNPNGINGEVVGSKGDRKKLPAGNSVSPPSAESNSPPKEVNIKPGNNVRPAKSKKLNKLVENSLSISNPGLFTSLGPPLRSTTCHRCGLFGSLRCSQCKQTYYCSTACQRRDWSAHSIVCRPVQPNFHKLENKSSIETKDVEVNNKSDCPLGVTKEIAIWAERIMFSDLRSLQLKKTMEIKGTVTEFKHPGDFYVQLYSSEVLEYMNQLSASLKETYANVHEKDYIPVKGEVCIAKYTVDQTWNRAIIQNVDVQQKKAHVLYIDYGNEEIIPLNRIYHLNRNIDLFPPCAIKCFVANVIPAEGNWSSDCIKATKPLLMEQYCSIKIVDILEEEVVTFAVEVELPNSGKLLDHVLIEMGYGLKPSGQDSKKENADQSDPEDVGKMTTENNIVVDKSDLIPKVLTLNVGDEFCGVVAHIQTPEDFFCQQLQSGRKLAELQASLSKYCDQLPPRSDFYPAIGDICCAQFSEDDQWYRASVLAYASEESVLVGYVDYGNFEILSLMRLCPIIPKLLELPMQAIKCVLAGVKPSLGIWTPEAICLMKKLVQNKIITVKVVDKLENSSLVELIDKSETPHVSVSKVLLDAGFAVGEQSMVTDKPSDVKETSVPLGVEGKVNPLEWTWVELGVDQTVDVVVCVIYSPGEFYCHVLKEDALKKLNDLNKSLAEHCQQKLPNGFKAEIGQPCCAFFAGDGSWYRALVKEILPNGHVKVHFVDYGNIEEVTADELRMISSTFLNLPFQGIRCQLADIQSRNKHWSEEAITRFQMCVAGIKLQARVVEVTENGIGVELTDLSTCYPRIISDVLIDEHLVLKSASPHKDLPNDRLVNKHELQVHVQGLQATSSAEQWKTIELPVDKTIQANVLEIISPNLFYALPKGMPENQEKLCMLTAELLEYCNAPKSRPPYRPRIGDACCAKYTSDDFWYRAVVLGTSDTDVEVLYADYGNIETLPLCRVQPITSSHLALPFQIIRCSLEGLMELNGSSSQLIIMLLKNFMLNQNVMLSVKGITKNVHTVSVEKCSENGTVDVADKLVTFGLAKNITPQRQSALNTEKMYRMNCCCTELQKQVEKHEHILLFLLNNSTNQNKFIEMKKLLKS

System: TSA
Conditions: BRAIN

Molecule	TSA Expression Rate (ER) [%]
B1	34
B2	14
B3	4
B4	4

Same assay, conditions: BREAST

Molecule	TSA Expression Rate (ER) [%]
B1	19
B2	37
B5	55
B3	27
B6	0
B4	7
B7	38

Same assay, conditions: HCC

Molecule	TSA Expression Rate (ER) [%]
B1	37
B2	25
B3	48
B4	46

Same assay, conditions: LUNG

Molecule	TSA Expression Rate (ER) [%]
B1	27
B5	28

Same assay, conditions: OVARIAN

Molecule	TSA Expression Rate (ER) [%]
B2	15
B3	13
B4	7

Same assay, conditions: PANCREATIC

Molecule	TSA Expression Rate (ER) [%]
B2	31
B3	21
B4	4

Same assay, conditions: THYROID

Molecule	TSA Expression Rate (ER) [%]
B1	0
B2	0
B3	0
B6	0
B4	8
B7	0

Same assay, conditions: TSA expression rate in BLADDER cancer

Molecule	Expression Rate (ER) % [%]
B1	19
B2	2
B3	11
B6	10
B4	13
B7	29

Same assay, conditions: TSA expression rate in CRC

Molecule	Expression Rate (ER) % [%]
B1	4
B2	6
B6	0
B4	5
B7	0

Same assay, conditions: TSA expression rate in Cervical cancer

Molecule	Expression Rate (ER) % [%]
B3	20
B4	4

Same assay, conditions: TSA expression rate in Esophageal

Molecule	Expression Rate (ER) % [%]
B1	11
B2	2
B5	8
B3	7
B6	0
B4	0
B7	10

Same assay, conditions: TSA expression rate in GASTRIC cancer

Molecule	Expression Rate (ER) % [%]
B1	10
B2	14
B3	23
B4	3

Same assay, conditions: TSA expression rate in HEAD and NECK

Molecule	Expression Rate (ER) % [%]
B1	29
B2	12
B3	29
B6	10
B4	17
B7	22

Same assay, conditions: TSA expression rate in Kidney

Molecule	Expression Rate (ER) % [%]
B2	8
B5	0
B3	0
B6	0
B4	2
B7	0

Same assay, conditions: TSA expression rate in LEUKEMIAS

Molecule	Expression Rate (ER) % [%]
B1	37
B2	11
B3	30
B4	12

Same assay, conditions: TSA expression rate in LUNG cancer

Molecule	Expression Rate (ER) % [%]
B2	1
B3	13
B6	9
B4	10
B7	5

Same assay, conditions: TSA expression rate in LYMPHOMAS

Molecule	Expression Rate (ER) % [%]
B1	0
B2	39
B3	16
B4	16

Same assay, conditions: TSA expression rate in MELANOMA

Molecule	Expression Rate (ER) % [%]
B1	45
B2	16
B3	21
B6	21
B4	35
B7	0

Same assay, conditions: TSA expression rate in PEDIATRIC

Molecule	Expression Rate (ER) % [%]
B1	40
B3	67
B4	44

Same assay, conditions: TSA expression rate in PROSTATE cancer

Molecule	Expression Rate (ER) % [%]
B1	6
B5	0
B6	0
B4	28
B7	47
